Test results from patent US11360100B2, “Methods and compositions useful in detecting proteins” (OREGON HEALTH & SCIENCE UNIVERSITY, priority 2016, dated 2022).
“Also recorded” adds a separate entry of the source. rhodamine = not defined here; BODIPY = not defined here

Legend:
CoilZ-EGFP [1] = test: SDS-PAGE/PVDF membrane labeling of transfected HEK293FT lysates, CoilZ-EGFP; assay type: binding; settings: cell lysates, SDS-PAGE, PVDF membrane
Procedure: The CoilY and CoilZ pair could be used to label two protein targets simultaneously. Transfected HEK293FT cell lysates from cells expressing mCherry, CoilY-mCherry, EGFP, or CoilZ-EGFP were resolved by SDS-PAGE and transferred to a PVDF membrane. The membrane was incubated sequentially with CoilZ-fluorescein and CoilY-rhodamine before imaging. GFP and mCherry fluorescence was not preserved due to SDS-PAGE protein denaturation.
(§1) A protein gel-based assay was optimized for analyzing VIP tags in vitro. Cell lysates were made from cells transfected with mCherry, CoilY-mCherry, GFP, or CoilZ-GFP, resolved by SDS-PAGE, and transferred to a membrane. GFP and mCherry fluorescence were not preserved in this experiment. The membrane was then contacted with CoilZ-fluorescein and CoilY-rhodamine before imaging. […] The probe peptides were specific for each tagged protein, and this single pair enabled specific and selective protein tagging of two distinct targets. In addition both the VIP E/R and VIP Y/Z tag sets could be used concurrently to label two recombinant proteins (DHFR and mCherry) without crosstalk (FIG. 23).

[2] = test system: untagged mCherry and DHFR; test: SDS-PAGE/PVDF membrane labeling, untagged proteins; assay type: binding; settings: lysates and purified proteins, PVDF membrane
Procedure: Crude lysates (lys.) and purified proteins (serial dilutions) were resolved by SDS-PAGE. Lysates were prepared from HERK 293FT cells transfected with mCherry, CoilY-mCherry, DHFR, and CoilE-DHFR. The protein gel was transferred to a PVDF membrane and then incubated with CoilZ-Fluorescein and CoilR-rhodamine. After washing, the membrane was imaged to detect VIPER labeling of DHFR (red) and VIP Y/Z labeling of mCherry (green). Untagged proteins were not labeled by either CoilR-rhodamine or CoilZ-fluorescein.
as §1

untagged TfR1 = target: T1, untagged TfR1 (Homo sapiens, UniProt P02786); test: CoilR probe labeling of CHO TRVb cells expressing untagged TfR1; assay type: cell-based; settings: labeled at 4° C.
T1 construct: expressed in transfected cells; host or cells: CHO TRVb

[3] = target: coiled-coil heterodimer pairs; settings: heterodimer pair, Table 2; cited from earlier work
untagged EGFP-TM = test: Flow cytometry of probe labeling, live U-2 OS cells expressing untagged EGFP-TM; assay type: cell-based, human; settings: 500 nM probe
Procedure: The in vitro results were translated to living cells. Flow cytometry was used to evaluate protein labeling in live human osteosarcoma (U-2 OS) cells expressing CoilZ-EGFP-TM, CoilY-EGFP-TM, or untagged EGFP-TM (FIG. 11). Cells were treated with 500 nM AF647-conjugated probe peptide before analysis, and we gated for EGFP-expressing cells. […] Non-specific labeling of untagged EGFP-TM and homodimerization with CoilY-EGFP-TM were minimal for cells exposed to CoilY-AF647. Cells expressing CoilY-EGFP-TM were labeled with CoilZ-AF647, but with only a 4-fold enhancement.
Protein labeling was assessed as a function of CoilY-AF647 concentration (FIG. 25). Live cells expressing CoilZ-EGFP-TM or untagged EGFP-TM were treated with a range of CoilY-AF647 concentrations (50 nM to 1000 nM for 30 min at room temperature). […] Cells had 21- to 44-fold higher median fluorescence compared to cells expressing untagged protein. Treatment with 300 nM AF647-CoilY gave optimal labeling, with 98% of cells labeled and a 35-fold increase in AF647 fluorescence. Treatment with an excess of probe peptide (i.e., 1000 nM) enhanced the AF647 signal, but at the cost of a small increase in non-specific labeling.

[4] = test system: untagged GFP/EGFP and mCherry; test: Fluorescence microscopy, cells expressing untagged fluorescent proteins; assay type: cell-based, human
Procedure: (§2) Fluorescence microscopy was used to confirm that the VIP Y/Z tag set enabled selective fluorescent labeling of proteins (FIGS. 3A and 3B). CoilZ was expressed by fusion to a cell-surface localized variant of GFP (CoilZ-GFP; pDisplay vector). […] Labeling was rapid (<30 min), target-specific, and live-cell compatible. Homodimerization between a CoilZ probe peptide and CoilZ-GFP was not observed. Cells expressing untagged GFP were not labeled with the CoilY probe peptide. CoilY was also expressed fused to the cell surface localized GFP and visualized using a CoilZ-AF647 probe peptide (FIG. 3B). No homodimerization of CoilY was observed, and the labeling was specific.
(§3) It was next confirmed that the VIP Y/Z tag set could be used in two-target imaging in fixed cells (FIGS. 5B and 13). A combination of cell lines singly-transfected with mCherry, GFP, CoilY-mCherry, or CoilZ-GFP was used, as illustrated in FIG. 9. […] Then we labeled two tagged FPs in one sample using a mixed population of cells expressing either CoilY-mCherry or CoilZ-GFP.
(§4) The disclosed methods were tested in transfected human osteosarcoma cells (U-2 OS). A pDisplay vector was used to target CoilZ-EGFP and untagged EGFP to the cell surface. This construct includes a C-terminal fusion to the transmembrane domain of the platelet derived growth factor receptor. As expected, both CoilZ-EGFP and untagged EGFP localized to the cell surface, and green fluorescence was observed within 24 h of transfection. Then the cells were blocked with 6% BSA and 10% FBS for 30 minutes at 37° C. and then contacted with an AF647-conjugated CoilY probe (CoilY-AF647), 30 min at 4° C. Cells were fixed before imaging by confocal fluorescence microscopy. The probe peptides are membrane impermeant; only cell-surface EGFP was accessible to CoilY-AF647 for labeling. Colocalization of green fluorescent CoilZ-EGFP with CoilY-AF647 was observed.
The CoilY/CoilZ tag set is bidirectional—either CoilZ or CoilY can serve as the probe peptide. CoilY-EGFP was expressed on the surface of U2OS cells and labeled with CoilZ-AF647. […]

CoilZ-EGFP [5] = test: Fluorescence microscopy labeling of cell-surface CoilZ-GFP (CoilZ-EGFP); assay type: cell-based, human; settings: fluorescence microscopy
Procedure: as §2, §3, §4
(§5) The CoilY/CoilZ tag set is also compatible with live-cell imaging. CoilZ-EGFP was contacted with CoilY-AF647 in live U2OS cells. […] Homodimerization was not observed for CoilY-EGFP incubated with CoilY-AF647. Non-specific labeling of untagged GFP was not observed (FIG. 26). Cells internalize labeled targets over time. CoilZ-GFP and CoilY-AF647 co-localization was observed on the surface and in endocytic vesicles due to rapid internalization, and AF647 signal accumulated inside cells during a 40 min. long incubation at room temperature (FIG. 12).
The VIPY/Z tag set can be used to label multiple protein targets simultaneously. Cells expressing CoilY-mCherry were combined with those expressing CoilZ-EGFP-pDisplay (FIG. 9). This mixed cell population, as well as unmixed CoilZ-GFP, CoilY-mCherry, and untagged controls, were plated for imaging. […] Fluorescence was detected by confocal fluorescence imaging. […]

CoilY-EGFP = test: Fluorescence microscopy labeling of cell-surface CoilY-GFP (CoilY-EGFP); assay type: cell-based, human
Procedure: as §2
The CoilY/CoilZ tag set is bidirectional—either CoilZ or CoilY can serve as the probe peptide. CoilY-EGFP was expressed on the surface of U2OS cells and labeled with CoilZ-AF647. Protein labeling was rapid (<30 min) and specific; non-specific labeling of untagged EGFP was not observed. Homodimerization was not observed for either CoilZ-AF647 with CoilZ-EGFP or CoilY-AF647 with CoilY-EGFP (FIG. 3B).
as §5

TfR1-MiniE = test: miniVIPER versus VIPER labeling of TfR1 in CHO TRVb cells; assay type: cell-based; settings: Tf-AF488 and full length CoilR-Cy5
Procedure: FIG. 24 A and B are fluorescent micrographs comparing VIP E/R labeling with miniVIPER (MiniE and MiniR) labeling of TfR1. […] After labeling cells were imaged over time during a 30 min incubation at 37° C. Cells were imaged as confocal slices at 63× magnification. Transferrin-AF488 was false-colored green, CoilR-Cy5 was false-colored magenta, and nuclei were stained with Hoechst and false-colored blue. Individual channels are shown in FIG. 24B (blue, green, magenta) for the 5 minute timepoint. A Pearson's correlation analysis was used to compare fluorescence co-localization of CoilR-Cy5 with Transferrin-AF488. The p values are reported on the image and indicate that TfR1-miniE had better co-localization between Tf and CoilR labeling.
VIP E/R was edited by removing a heptad repeat, and changing key residues in the sequence to maximize affinity, improve dimer interface and create a smaller tag pair with more favorable charge balance for imaging in cells. MiniE (SEQ ID NO:10) and MiniR (SEQ ID NO:9) were created. TfR1 was tagged at the C-terminus with MiniE.

T1 sequence (P02786 whole entry): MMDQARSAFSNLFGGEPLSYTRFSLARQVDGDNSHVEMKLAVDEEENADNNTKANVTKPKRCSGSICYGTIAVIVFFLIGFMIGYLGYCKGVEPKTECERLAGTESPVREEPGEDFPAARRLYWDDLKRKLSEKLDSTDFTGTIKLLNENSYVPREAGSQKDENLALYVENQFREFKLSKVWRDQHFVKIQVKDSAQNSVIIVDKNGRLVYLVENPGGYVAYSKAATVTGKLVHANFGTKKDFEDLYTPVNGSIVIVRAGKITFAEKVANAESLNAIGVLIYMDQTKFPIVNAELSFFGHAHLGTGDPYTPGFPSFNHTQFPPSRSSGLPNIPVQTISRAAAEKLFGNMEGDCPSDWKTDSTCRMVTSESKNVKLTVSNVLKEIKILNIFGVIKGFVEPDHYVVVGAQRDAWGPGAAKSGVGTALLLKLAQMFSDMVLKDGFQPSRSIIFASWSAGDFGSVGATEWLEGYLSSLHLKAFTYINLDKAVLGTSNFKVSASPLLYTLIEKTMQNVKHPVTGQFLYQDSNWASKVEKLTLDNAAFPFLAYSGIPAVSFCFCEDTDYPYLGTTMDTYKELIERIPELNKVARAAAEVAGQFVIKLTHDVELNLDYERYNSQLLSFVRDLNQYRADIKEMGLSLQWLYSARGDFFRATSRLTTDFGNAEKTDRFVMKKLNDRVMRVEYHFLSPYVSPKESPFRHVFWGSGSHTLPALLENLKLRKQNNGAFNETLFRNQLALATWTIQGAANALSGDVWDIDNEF

B1: CoilY-rhodamine: red fluorescent CoilY probe peptide, maleimide conjugate (conjugate)
peptide: MGSSNTVKELKNYIQELEERNAELKNLKEHLKFAKAELEFELAAHKFEGGGAAAC(rhodamine)LGKLAAALEHHHHHH
modifications: reading uncertain
notes: red fluorescent CoilY probe peptide, maleimide conjugate
With B1 as the molecule, how does the “probe peptide binding to CoilZ-EGFP on membrane” value (CoilZ-EGFP [1]) read?
The value was “specific coiled-coil heterodimer formation could be detected; also recorded: Probe peptide binding was detected”.

B2: CoilR-rhodamine: CoilR probe peptide conjugated to rhodamine (conjugate)
peptide: MGGSLEIRAAFLRQRNTALRTEVAELEQEVQRLENEVSQYETRYGPLGGGAAALGC(rhodamine)LAAALEHHHHHH
modifications: reading uncertain
For B2, which “labeling of untagged proteins on membrane” value [2] is on record?
The value was “not labeled”.

B3: CoilR-BODIPY: CoilR probe peptide conjugated to BODIPY (conjugate)
peptide: MGGSLEIRAAFLRQRNTALRTEVAELEQEVQRLENEVSQYETRYGPLGGGAAALGC(BODIPY)LAAALEHHHHHH
modifications: reading uncertain
Which “labeling of cells expressing untagged TfR1” value (untagged TfR1) does the source give for B3 here?
The value was “showed now labeling”.

B4: VIP 3/4: heterodimeric tag pair of Coil3 and Coil4 (peptide)
chain 1: NEVTTLENDAAFIENENAYLEKEIARLRKEKAALRNRLAHKK
chain 2: QKVAELKNRVAVKLNRNEQLKNKVEELKNRNAYLKNELATLENEVARLENDVAE
Which Kd [3] does the source give for B4 here?
The Kd was under 30 nM.

B5: CoilZ-AF647: CoilZ probe peptide conjugated to AF647 (conjugate)
peptide: MGSSQKVAQLKNRVAYKLKENAKLENIVARLENDNANLEKDIANLEKDIANLERDVARGGGAAACLGKLAAALEHHHHHH
With B5 as the molecule, how does the “non-specific labeling of untagged EGFP-TM” value (untagged EGFP-TM) read?
Its value is “slightly higher”.

And the “non-specific labeling of untagged fluorescent proteins” value [4]?
Its value is “not observed”.

What about the “homodimerization / cross-reactivity of CoilZ probe with CoilZ-GFP/EGFP” value (CoilZ-EGFP [5]) of the same molecule?
The value was “not observed”.

And the “labeling time (rapid)” value (CoilY-EGFP; CoilY-EGFP on surface of U2OS cells)?
The value was under 30 min.

And the “labeling of CoilY-GFP/EGFP (specificity)” value (CoilY-EGFP; fluorescence microscopy)?
Its value is “specific”.

B6: CoilZ probe peptide: CoilZ with linker, reactive cysteine and His6 tag, SEQ ID NO: 14 (peptide)
chain: B5 peptide
For B6, which “homodimerization / cross-reactivity of CoilZ probe with CoilZ-GFP/EGFP” value (CoilZ-EGFP [5]) is on record?
Its value is “not observed”.

B7: CoilY probe peptide: CoilY with linker, reactive cysteine and His6 tag, SEQ ID NO: 13 (peptide)
chain: MGSSNTVKELKNYIQELEERNAELKNLKEHLKFAKAELEFELAAHKFEGGGAAACLGKLAAALEHHHHHH
Which “non-specific labeling of untagged fluorescent proteins” value [4] does the source give for B7 here?
The value was “not labeled”.

B8: miniVIPER: shorter, better charge balanced VIP E/R pair of MiniE and MiniR (peptide)
chain 1: LEIRVAFLRQRNTALRTEVAELEQEVQRLENRYGPL
chain 2: LEIEAAFLERENTALETRVAELRQRVQRLRNEYGPL
With B8 as the molecule, how does the “Tf-AF488 signal compared to VIPER” value (TfR1-MiniE) read?
Its value is “brighter Tf-A488 signal”.

And the “colocalization between Tf-AF488 and CoilR-Cy5 compared to VIPER” value (TfR1-MiniE)?
The value was “improved colocalization”.

B9: VIP 1/2: heterodimeric tag pair of Coil1 and Coil2 (peptide)
chain 1: NLVAQLENEVASLENENETLKKKNLHKKDLIAYLEKEIANLRKKIEE
chain 2: ARNAYLRKKIARLKKDNLQLERDEQNLEKIIANLRDEIARLENEVASHEQ
For B9, which Kd [3] is on record?
The Kd was under 10 nM.
